Data: patent US20100130424A1 (Janssen / Centocor, published 2010)
“And” between values parts separate entries of the source, which are not always exact repeats. Equal entries are not always repeated. Where two headings read alike, the source gives them in different places. Blank lines part the entries; values can stand above or below the molecule they belong to. No end group written: not given here.

Experiments:
[1] = biological target: T1, human CRH receptor type 2 (human, UniProt Q13324 1-411); experiment: radioligand competition, [125I]-anti-sauvagine-30, membranes of h-CRHR2 SK-N-MC cells
T1 sequence (looked up): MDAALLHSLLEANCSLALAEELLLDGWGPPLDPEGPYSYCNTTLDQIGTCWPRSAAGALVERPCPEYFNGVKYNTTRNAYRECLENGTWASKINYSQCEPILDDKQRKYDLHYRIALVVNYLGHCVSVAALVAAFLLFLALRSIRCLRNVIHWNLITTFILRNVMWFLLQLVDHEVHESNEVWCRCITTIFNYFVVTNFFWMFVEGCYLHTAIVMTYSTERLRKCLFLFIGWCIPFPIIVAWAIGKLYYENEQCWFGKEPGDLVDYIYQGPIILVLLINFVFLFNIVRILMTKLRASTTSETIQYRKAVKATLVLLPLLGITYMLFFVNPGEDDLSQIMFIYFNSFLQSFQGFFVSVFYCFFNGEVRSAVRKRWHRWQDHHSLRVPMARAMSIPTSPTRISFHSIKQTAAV

[2] = biological target: T1, human CRH receptor type 2; experiment: cell-based or functional assay
[3] = biological target: T1, human CRH receptor type 2; experiment: cell-based or functional assay; remark: listed apart in the source
[4] = biological target: T2, human CRH receptor type 1 (human, UniProt P34998 24-415); experiment: radioligand competition, [125I]-(Tyr0)-sauvagine, CRHR1 membrane assay
T2 construct: whole, on cells; on transfected SK-N-MC cells (cAMP assay); membranes in the radioligand assay; also called CRHR1; h-CRHR1
T2 sequence (looked up): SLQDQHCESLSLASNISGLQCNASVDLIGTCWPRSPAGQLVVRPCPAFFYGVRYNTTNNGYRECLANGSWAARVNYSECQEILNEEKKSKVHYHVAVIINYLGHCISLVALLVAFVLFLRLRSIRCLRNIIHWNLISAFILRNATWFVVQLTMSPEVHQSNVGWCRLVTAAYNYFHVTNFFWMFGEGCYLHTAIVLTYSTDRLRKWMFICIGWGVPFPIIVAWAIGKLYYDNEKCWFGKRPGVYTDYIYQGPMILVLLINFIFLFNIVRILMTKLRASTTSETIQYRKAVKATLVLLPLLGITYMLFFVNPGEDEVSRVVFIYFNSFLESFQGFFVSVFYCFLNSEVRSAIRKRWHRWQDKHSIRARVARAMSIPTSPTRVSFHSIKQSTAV

[5] = biological target: T1, human CRH receptor type 2; experiment: cell-based or functional assay; remark: listed apart in the source
[6] = biological target: T1, human CRH receptor type 2; experiment: inferred from the test as antagonist at 10 µM, cAMP assay on h-CRHR2 SK-N-MC cells
[7] = biological target: T2, human CRH receptor type 1; experiment: cell-based or functional assay
[8] = biological target: T1, human CRH receptor type 2; experiment: radioligand competition, [125I]-anti-sauvagine-30, membranes of h-CRHR2 SK-N-MC cells; biphasic curve
[9] = biological target: T1, human CRH receptor type 2; experiment: cell-based or functional assay; remark: listed apart in the source
[10] = biological target: T3, human CRH receptor type 1 (human), P34998; experiment: radioligand competition, [125I]-(Tyr0)-sauvagine, CRHR1 membrane assay; conditions: remark: other sources report otherwise
T3 chain: T2 sequence (looked up)

[11] = biological target: T1, human CRH receptor type 2; experiment: cell-based or functional assay; remark: listed apart in the source
[12] = scale: % of the maximum response obtained to h-SCP

Molecule: TLSLDVPTNIMNLLFNIAKAKNLRAQAAANAHLMAQI-NH2 [CRHR2 peptide agonist with shortened amino acid sequence, 37aa, SEQ ID NO: 108]
pA50, cAMP [3]: 8.49 -log M | αmax, cAMP [3]: 106 % of the maximum response to h-SCP

Molecule: DVPTNIMNLLFNIAKAKNLRAQAAANAHLMAQI-NH2 [CRHR2 peptide agonist with shortened amino acid sequence, 33aa, SEQ ID NO: 112]
KA (receptor affinity, in µM) [6]: > 10 µM

Molecule: TKFTLSLDVPTNIMNLLFNIAKAKNLRAQAAANAHLMAQI-NH2 (40 amino acids; also called h-SCP) [Human stresscopin with amidated C-terminus]
pKI [1]: 5.71 -log M | pKI [4]: 4.6 -log M | A50, cAMP [5]: 0.4 nM | control pA50, cAMP [5]: 9.47 to 9.74 -log M | pA50, cAMP [5]: 9.4 -log M | pA50, cAMP (one batch) [5]: 9.41 -log M | αmax, cAMP (% of the maximum response to h-SCP) [5]: 98.7 | αmax, cAMP [5, 12]: 100 | pA50, cAMP [7]: < 5 -log M | pIC50 (low affinity state) [8]: 6.6 -log M

Molecule: TKFTLSCDVPTNIMNLLFNIAKAKNLRAQAAANAHLMAQI-NH2 [Cys-variant CRHR2 peptide agonist, SEQ ID NO: 8]
Log DR against h-SCP, cAMP [9]: 2.86 log10 ratio | pA50, cAMP [9]: ~6.82 -log M

Molecule: KFTLSLDVPTNIMNLLFNIAKAKNLRAQAAANAHLMAQI-NH2 [CRHR2 peptide agonist with shortened amino acid sequence, 39aa, SEQ ID NO: 107]
pA50, cAMP [3]: 9.25 -log M | αmax, cAMP [3]: 111 % of the maximum response to h-SCP

Molecule: SLDVPTNIMNLLFNIAKAKNLRAQAAANAHLMAQI-NH2 [CRHR2 peptide agonist with shortened amino acid sequence, 35aa, SEQ ID NO: 110]
KA (receptor affinity, in µM) [6]: > 10 µM

Molecule: LDVPTNIMNLLFNIAKAKNLRAQAAANAHLMAQI-NH2 [CRHR2 peptide agonist with shortened amino acid sequence, 34aa, SEQ ID NO: 111]
KA (receptor affinity, in µM) [6]: > 10 µM

Molecule: TKFTLSLDCPTNIMNLLFNIAKAKNLRAQAAANAHLMAQI-NH2 [Cys-variant CRHR2 peptide agonist, SEQ ID NO: 10]
Log DR against h-SCP, cAMP [9]: 1.3 log10 ratio | pA50, cAMP [9]: 8.28 -log M

Molecule: TKFTLCLDVPTNIMNLLFNIAKAKNLRAQAAANAHLMAQI (NES-PEG (about 20 kDa) on Cys 6; C-terminal amide) [Pegylated Cys-variant CRHR2 peptide agonist (NES linker, PEG about 20 kDa), SEQ ID NO: 60]
Log DR against h-SCP, cAMP [9]: > 3.22 log10 ratio | pA50, cAMP [9]: ~6.32 -log M

Molecule: TKFTLSCDVPTNIMNLLFNIAKAKNLRAQAAANAHLMAQI (NES-PEG (about 20 kDa) on Cys 7; C-terminal amide) [Pegylated Cys-variant CRHR2 peptide agonist (NES linker, PEG about 20 kDa), SEQ ID NO: 61]
Log DR against h-SCP, cAMP [9]: > 3.32 log10 ratio | pA50, cAMP [9]: ~6.22 -log M

Molecule: TKFTLSLDCPTNIMNLLFNIAKAKNLRAQAAANAHLMAQI (NES-PEG (about 20 kDa) on Cys 9; C-terminal amide) [Pegylated Cys-variant CRHR2 peptide agonist (NES linker, PEG about 20 kDa), SEQ ID NO: 63]
Log DR against h-SCP, cAMP [9]: ~2.12 log10 ratio | pA50, cAMP [9]: ~7.45 -log M

Molecule: TKFTLSLCVPTNIMNLLFNIAKAKNLRAQAAANAHLMAQI (NES-PEG (about 20 kDa) on Cys 8; C-terminal amide) [Pegylated Cys-variant CRHR2 peptide agonist (NES linker, PEG about 20 kDa), SEQ ID NO: 62]
Log DR against h-SCP, cAMP [9]: > 3.48 log10 ratio | pA50, cAMP [9]: ~6.06 -log M

Molecule: TKFTLSLDVPCNIMNLLFNIAKAKNLRAQAAANAHLMAQI-NH2 [Cys-variant CRHR2 peptide agonist, SEQ ID NO: 12]
Log DR against h-SCP, cAMP [9]: 1.72 log10 ratio | pA50, cAMP [9]: 7.86 -log M

Molecule: TKFTLSLDVCTNIMNLLFNIAKAKNLRAQAAANAHLMAQI-NH2 [Cys-variant CRHR2 peptide agonist, SEQ ID NO: 11]
Log DR against h-SCP, cAMP [9]: 0.82 log10 ratio | pA50, cAMP [9]: 8.76 -log M

Molecule: TKFTLSLCVPTNIMNLLFNIAKAKNLRAQAAANAHLMAQI-NH2 [Cys-variant CRHR2 peptide agonist, SEQ ID NO: 9]
Log DR against h-SCP, cAMP [9]: 1.89 log10 ratio | pA50, cAMP [9]: 7.8 -log M

Other lines, results leading:

pKI [1]: 7.74 -log M | pA50, cAMP [2]: 9.51 -log M | αmax, cAMP [2]: 115 and 129 | αmax, cAMP [2, 12]: 117
Molecule: human urocortin 2 (peptide)

pKI [1]: 7.57 -log M | pA50, cAMP [2]: 9.32 -log M and 9.58 -log M and 9.23 -log M | αmax, cAMP [2]: 114 and 109 and 98.6
Molecule: h-SRP (peptide)

pKI [1]: 7.78 -log M | pKI [4]: 5.81 -log M | pA2 against h-SCP, cAMP [5]: 7.82 -log M
B1: anti-sauvagine-30 (peptide)
peptide: FHLLRKMIEIEKQEKEKQQAANNRLLLDTI-NH2
notes: selective CRHR2 antagonist; also called SV30; CRHR antagonist peptide

pKI [1]: 8.51 -log M | pA50, cAMP [2]: 9.08 -log M | αmax, cAMP [2]: 110 | pA50, cAMP [7]: 9.19 -log M
Molecule: DDPPLSIDLTFHLLRTLLELARTQSQRERAEQNRIIFDSV-NH2 [r-UCN1]

pKI [10]: 4.96 -log M | pKI [1]: 6.49 -log M | pA50, cAMP [5]: 9.26 -log M | αmax, cAMP [5]: 102 | pA50, cAMP [7]: < 5 -log M
Molecule: FTLSLDVPTNIMNLLFNIAKAKNLRAQAAANAHLMAQI-NH2 [human Urocortin III]

potency against amidated h-SCP, cAMP [11]: ~200 fold less potent | pA50, cAMP [3]: 7.1 -log M | αmax, cAMP [3]: 107 % of the maximum response to h-SCP
Molecule: TKFTLSLDVPTNIMNLLFNIAKAKNLRAQAAANAHLMAQI-OH [non-amidated h-SCP]

Log DR against h-SCP, cAMP [9]: ~2.75 log10 ratio | pA50, cAMP [9]: ~6.82 -log M
Molecule: TKFTLSLDVPCNIMNLLFNIAKAKNLRAQAAANAHLMAQI (NES-PEG (about 20 kDa) on Cys 11; C-terminal amide) [Pegylated Cys-variant CRHR2 peptide agonist (NES linker, PEG about 20 kDa), SEQ ID NO: 65]

Log DR against h-SCP, cAMP [9]: ~2.59 log10 ratio | pA50, cAMP [9]: ~6.98 -log M
Molecule: TKFTLSLDVCTNIMNLLFNIAKAKNLRAQAAANAHLMAQI (NES-PEG (about 20 kDa) on Cys 10; C-terminal amide) [Pegylated Cys-variant CRHR2 peptide agonist (NES linker, PEG about 20 kDa), SEQ ID NO: 64]
